Data taken from US20260234242A1 (HAINAN SIMCERE ZAIMING PHARMACEUTICAL, published 2026).
Positions count from the first letter of the chain named.

T1: his-tagged human CDH6 extracellular region protein (hCDH6 ECD-his) (human, UniProt P55285 19-615)
T1 construct: also called Human CDH6-his; hCDH6-his; not shown: his tag
T1 sequence: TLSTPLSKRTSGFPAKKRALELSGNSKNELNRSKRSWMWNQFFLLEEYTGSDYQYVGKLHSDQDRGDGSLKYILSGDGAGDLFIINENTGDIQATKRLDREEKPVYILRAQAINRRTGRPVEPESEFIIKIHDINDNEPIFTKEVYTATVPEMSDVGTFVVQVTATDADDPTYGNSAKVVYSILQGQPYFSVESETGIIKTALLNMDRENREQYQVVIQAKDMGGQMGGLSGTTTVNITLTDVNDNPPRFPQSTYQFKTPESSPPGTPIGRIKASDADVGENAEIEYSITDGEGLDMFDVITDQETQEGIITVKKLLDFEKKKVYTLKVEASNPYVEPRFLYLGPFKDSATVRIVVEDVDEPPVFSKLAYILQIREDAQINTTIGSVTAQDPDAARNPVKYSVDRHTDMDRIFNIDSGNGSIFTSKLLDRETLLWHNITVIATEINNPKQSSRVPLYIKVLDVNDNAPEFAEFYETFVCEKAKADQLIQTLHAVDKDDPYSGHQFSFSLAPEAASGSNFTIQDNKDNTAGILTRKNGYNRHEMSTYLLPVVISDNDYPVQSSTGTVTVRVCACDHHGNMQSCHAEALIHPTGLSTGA

T2: human CDH6 on tumor cells (OVCAR3 cells, PA-1 cells) (human, UniProt P55285 54-790)
T2 sequence: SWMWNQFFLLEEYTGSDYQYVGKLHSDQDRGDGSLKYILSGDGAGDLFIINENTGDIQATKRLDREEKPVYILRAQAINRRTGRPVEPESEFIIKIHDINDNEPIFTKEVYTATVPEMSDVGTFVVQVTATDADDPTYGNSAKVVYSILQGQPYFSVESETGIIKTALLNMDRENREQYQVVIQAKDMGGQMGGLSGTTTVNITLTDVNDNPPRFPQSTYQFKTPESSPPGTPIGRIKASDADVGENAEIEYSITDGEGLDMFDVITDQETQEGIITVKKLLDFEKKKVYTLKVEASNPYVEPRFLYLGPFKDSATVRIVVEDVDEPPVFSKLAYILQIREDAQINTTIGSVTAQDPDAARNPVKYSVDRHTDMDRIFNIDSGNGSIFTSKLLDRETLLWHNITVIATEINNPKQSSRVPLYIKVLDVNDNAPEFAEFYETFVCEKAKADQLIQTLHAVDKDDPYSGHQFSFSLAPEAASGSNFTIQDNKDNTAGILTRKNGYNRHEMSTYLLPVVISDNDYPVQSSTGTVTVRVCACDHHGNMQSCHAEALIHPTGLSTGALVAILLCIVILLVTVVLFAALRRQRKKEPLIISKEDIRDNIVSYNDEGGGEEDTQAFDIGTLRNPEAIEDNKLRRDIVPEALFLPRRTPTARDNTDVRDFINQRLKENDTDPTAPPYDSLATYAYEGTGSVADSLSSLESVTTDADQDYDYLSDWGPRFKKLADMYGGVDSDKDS

B1: hCDH6-1-H2L1 (antibody, V domains shown)
VH: EVQLVQSGAEVKKPGSSVKVSCKASGYTFTNYWMHWVRQAPGQGLEWMGDIDPSHSETHYTQKFKDRVTITVDKSTSTAYMELSSLRSEDTAVYYCARGDLGRFDYWGQGTTVTVSS
VL: DIVMTQSPDSLAVSLGERATINCRASESVSIHGTHLMHWYQQKPGQPPKLLIYAASNLESGVPDRFSGSGSETDFTLTISSLQAEDVAVYYCQQSFEDPWTFGGGTKVEIK
notes: Humanized
B2: hCDH6-1-H3L2 (antibody, V domains shown)
VH: B1 VH with I70L
VL: B1 VL with P44S
notes: Humanized
B3: hCDH6-1-H3L3 (antibody, V domains shown)
VH: B1 VH with I70L
VL: DIQMTQSPSSLSASVGDRVTITCRASESVSIHGTHLMHWYQQKPGKPPKLLIYAASNLESGVPSRFSGSGSETDFTFTISSLQPEDIATYYCQQSFEDPWTFGGGTKVEIK
notes: Humanized
B4: hCDH6-1-H3L1 (antibody, V domains shown)
VH: B1 VH with I70L
VL: B1 VL
notes: Humanized
B5: hCDH6-1-H4L2 (antibody, V domains shown)
VH: B1 VH with A40R
VL: B1 VL with P44S
notes: Humanized
B6: hCDH6-1-H4L3 (antibody, V domains shown)
VH: B1 VH with A40R
VL: B3 VL
notes: Humanized
B7: hCDH6-1-H4L1 (antibody, V domains shown)
VH: B1 VH with A40R
VL: B1 VL
notes: Humanized
B8: hCDH6-1-H2L2 (antibody, V domains shown)
VH: B1 VH
VL: B1 VL with P44S
notes: Humanized
B9: hCDH6-6-H3L4 (antibody, V domains shown)
VH: EVQLVQSGAEVKKPGASVKVSCKASGYTFTDYYMAWVRQAPRQGLEWMGYIFPNSGGTDYSQKFKGRVTMTVDKSTSTVYMELSSLRSEDTAVYYCARELGADYGDYYAMDHWGQGTTVTVSS
VL: DIQMTQSPSSLSASVGDRVTITCRASENIDSYLAWYQQKPGKSPKLLVYSATLLADGVPSRFSGSGSGTDYTLTISSLQPEDFARYYCQHYYRTPPTFGQGTKLEIK
notes: Humanized
B10: hCDH6-6-H1L5 (antibody, V domains shown)
VH: B9 VH with R42G
VL: DIVMTQSPLSLPVTPGEPASISCRASENIDSYLAWYLQKPGKSPQLLVYSATLLADGVPDRFSGSGSGTDFTLKISRVEAEDVGVYYCQHYYRTPPTFGQGTKLEIK
notes: Humanized
B11: hCDH6-6-H2L5 (antibody, V domains shown)
VH: B9 VH with R42G, M70L
VL: B10 VL
notes: Humanized
B12: hCDH6-6-H3L5 (antibody, V domains shown)
VH: B9 VH
VL: B10 VL
notes: Humanized

The binders below were run against T1, his-tagged human CDH6 extracellular … (assay: ELISA, coated antigen).
Protocol: (§1) Human CDH6 protein (hCDH6 ECD-his, conventionally synthesized), monkey CDH6 protein (cynoCDH6 ECD-his, conventionally synthesized; the cynoCDH6 ECD sequence was derived from Uniprot #A0A2K5TW62 (19-615)), and murine CDH6 protein (mCDH6 ECD-his, conventionally synthesized; the mCDH6 ECD sequence was derived from Uniprot #P97326 (19-615)) were diluted with PBS to a final concentration of 1 μg/mL, and added to a 96-well ELISA plate at 100 μL/well. The plate was incubated at 4° C. overnight. The next day, the plate was washed 3 times with a plate washing solution (PBS+0.01% (v/v) Tween 20), and a blocking buffer (PBS+0.01% (v/v) Tween 20+2% (w/w) BSA) was added for blocking at room temperature for 2 h. The blocking buffer was discarded, and the plate was washed 3 times. The chimeric antibodies were diluted with 1% BSA+PBS (purchased from Cytiva, Cat. No. SH30264.01) and added to the 96-well plate at 50 μL/well. After incubation at 37° C. for 2 h, the plate was washed 3 times with a plate washing solution. […] The plate was incubated at 37° C. for 1 h and then washed 5 times with a plate washing solution. A TMB substrate (purchased from Seracare, Cat. No. 5120-0077) was added at 50 μL/well and incubated at room temperature for 10 min, then a stop solution (1.0 N HCl) was added at 50 μL/well. OD450 nm values were read using a microplate reader (Biotek). Analysis was performed by the GraphPad Prism software, data were fitted, and EC50 values were calculated. The chimeric antibodies tested all had strong binding to the human CDH6 protein, the monkey CDH6 protein, and the murine CDH6 protein.
(§2) According to the above sequences, heavy chain (HC) and light chain (LC) plasmids were constructed (the nucleic acid sequences encoding the VH and VL of the antibodies were recombined into an expression vector carrying a signal peptide (SEQ ID NO: 132, […]) and a heavy chain constant region/light chain constant region sequence to obtain recombinant plasmids expressing VH-CH1-Fc/VL-CL).

Row | EC50 | Max OD450 | Binder
1 | 0.046 nM | 2.65 OD450 | B1
2 | 0.026 nM | 2.58 OD450 | B2
3 | 0.03 nM | 2.71 OD450 | B3
4 | 0.026 nM | 2.6 OD450 | B4
5 | 0.026 nM | 2.55 OD450 | B5
6 | 0.029 nM | 2.61 OD450 | B6
7 | 0.031 nM | 2.62 OD450 | B7
8 | 0.026 nM | 2.63 OD450 | B8

Target: T1, his-tagged human CDH6 extracellular …
Assay: ELISA, coated antigen
Remark: another data set of the same source
Protocol: as §1
as §2, with “VH—CH1-Fc/VL-CL).” for “VH-CH1-Fc/VL-CL).”

Row | EC50 | Max OD450 | Binder
9 | 0.041 nM | 2.05 OD450 | B9
10 | 0.031 nM | 2.06 OD450 | B10
11 | 0.026 nM | 2.1 OD450 | B11
12 | 0.043 nM | 1.97 OD450 | B12

Each binder was assayed against T2, human CDH6 on tumor cells (OVCAR3 …) (assay: FACS, OVCAR3 cells).
Protocol: (§3) OVCAR3 cells with high expression of CDH6 and PA-1 cells with moderate expression of CDH6 were used to detect the binding activity of the antibodies to the cells. […] The cells were washed once with PBS, counted, resuspended to 2×10⁶ cells/mL in an FACS buffer (PBS+2% FBS), and then added to a 96-well plate at 50 μL/well. The chimeric antibodies were diluted with FACS buffer (PBS+2% FBS) and added to the 96-well plate at 50 μL/well, and the plate was incubated at 4° C. for 1 h. […] The dilution was added to the 96-well plate at 50 μL/well, and the plate was incubated at 4° C. for 1 h. After the plates were centrifuged and washed 2 times with PBS, the cells were resuspended in an FACS buffer. The mean fluorescence intensity (MFI) was measured using FACS Canton II (BD). Analysis was performed by the GraphPad Prism software, data were fitted, and EC50 values were calculated. The chimeric antibodies tested had strong binding to both OVCAR3 cells and PA-1 cells.
as §2, with “VH—CH1-Fc/VL-CL). According to the expression and purification methods in Example 2, the hCDH6-6 humanized antibodies were obtained, and the binding activity of the humanized antibodies was detected by ELISA and FACS (see 2.2 and 2.3 for the method).” for “VH-CH1-Fc/VL-CL).”

Row | EC50 | Max MFI | Binder
13 | 0.7 nM | 14500 MFI | B9
14 | 0.61 nM | 14200 MFI | B10
15 | 0.64 nM | 14600 MFI | B11
16 | 0.69 nM | 14200 MFI | B12

Target: T2, human CDH6 on tumor cells (OVCAR3 …)
Assay: FACS, OVCAR3 cells
Remark: another data set of the same source
Protocol: as §3
as §2, with “VH-CH1-Fc/VL-CL). According to the expression and purification methods in Example 2, the hCDH6-1 humanized antibodies were obtained, and the binding activity of the humanized antibodies was detected by ELISA and FACS (see 2.2 and 2.3 for the method).” for “VH-CH1-Fc/VL-CL).”

Row | EC50 | Max MFI | Binder
17 | 0.228 nM | 14500 MFI | B1
18 | 0.167 nM | 14300 MFI | B2
19 | 0.155 nM | 14600 MFI | B3
20 | 0.154 nM | 14600 MFI | B4
21 | 0.176 nM | 15200 MFI | B5
22 | 0.162 nM | 15100 MFI | B6
23 | 0.152 nM | 14000 MFI | B7
24 | 0.147 nM | 14300 MFI | B8
